Numbering of substitutions follows the chain as printed.
Legend:
[1] = test system: Raw264.7 murine macrophages; assay: HRF secretion into culture supernatant, western blot, macrophages; assay type: cell-based, mouse; conditions: stimulated overnight, 20 or 100 ng/ml
Experimental: (§1) FIGS. 4A-4C show HRF is secreted by various cells. CMT-93 murine intestinal epithelial cells (FIG. 4A) and NIH/3T3 murine fibroblasts (FIG. 4B) and Raw264.7 murine macrophages (FIG. 4C) were stimulated overnight with low (20 ng/ml) and high (100 ng/mL) concentrations of various cytokines. HRF secreted into culture supernatants was detected by western blotting. Med and US denote medium only and supernatant from unstimulated cells, respectively. −DTT and +DTT indicate SDS gels were run under non-reducing and reducing conditions, respectively. Gel portions of containing the 23 kDa HRF monomer are shown except that a larger portion of the non-reducing gel is shown in panel C. Arrow indicates the position of HRF dimer, which disappeared under reducing conditions.
(§2) The following cell lines were cultured in DMEM plus 10% FCS except for U-937 cells which were cultured in RPMI1640 plus 10% FCS: CMT-93 mouse and Caco-2 (with 20% FCS) human intestinal epithelial cell lines; NIH/3T3 mouse fibroblast line; Raw 264.7 mouse and U-937 human macrophage lines; BEAS-2B human bronchial epithelial cell line; 293T human embryonic kidney cell line (obtained from ATCC, Manassas, Va., except for NIH/3T3, which was provided by S. A. Aaronson, NIH). Fibroblast-like stromal cells were cultured from small intestines of BALB/c mice in DMEM/10% FBS. CD4^+ T and B cells were purified from mouse spleens using BD IMag™ Mouse CD4 and B cells enrichment set-DM. Low-density bone-marrow cells were cultured in the presence of 100 ng/ml of stem cell factor (PeproTech) and 100 ng/ml of FLT-3 ligand (R&D Systems) for 4 days, and with 10 ng/mL of IL-5 (R&D Systems) thereafter for 10 days to obtain bone marrow-derived eosinophils (44). Bone marrow cells were cultured in the presence of 20 ng/ml of GM-CSF for 6 days and adherent cells were collected as bone marrow-derived macrophages. Non-adherent cells were further cultured with 5 ng/ml GM-CSF and the non-adherent cells were collected as bone marrow-derived dendritic cells. […]

[2] = test system: NIH/3T3 murine fibroblasts and primary intestinal fibroblasts; assay: HRF secretion into culture supernatant, western blot, fibroblasts; assay type: cell-based, mouse; conditions: stimulated overnight, 20 or 100 ng/ml
Experimental: as §1
The following cell lines were cultured in DMEM plus 10% FCS except for U-937 cells which were cultured in RPMI1640 plus 10% FCS: CMT-93 mouse and Caco-2 (with 20% FCS) human intestinal epithelial cell lines; NIH/3T3 mouse fibroblast line; Raw 264.7 mouse and U-937 human macrophage lines; BEAS-2B human bronchial epithelial cell line; 293T human embryonic kidney cell line (obtained from ATCC, Manassas, Va., except for NIH/3T3, which was provided by S. A. Aaronson, NIH). Fibroblast-like stromal cells were cultured from small intestines of BALB/c mice in DMEM/10% FBS. […]

[3] = test system: CMT-93 murine intestinal epithelial cells; assay: HRF secretion into culture supernatant, western blot, CMT-93; assay type: cell-based, mouse; conditions: stimulated overnight, 20 or 100 ng/ml
Experimental: as §1, §2

[4] = test system: BEAS-2B human bronchial epithelial cells; assay: HRF secretion, western blot, BEAS-2B; assay type: cell-based; conditions: combination of HDM and cytokine, 24 h
Source text: As lung epithelial cells are exposed to the environment, HRF secretion was studied using BEAS-2B human bronchial epithelial cells. A small amount of HRF was secreted constitutively, but house dust mite allergens induced the secretion of high-molecular-weight HRF species (HMW-HRFs). Various cytokines including epithelial derived cytokines as well as Th2 cytokines and proinflammatory cytokines further enhanced HDM-induced secretion of HMW-HRFs.
Cultured cells were scraped and treated with adenosine and ATP, which should be abundantly present in inflammatory or injured tissues. These conditions induced secretion of HRF monomer, dimer and HMW-HRFs like stimulation with HDM plus cytokines.
Culture supernatants were analyzed by SDS-PAGE under nonreducing (−DTT) and reducing (+DTT) conditions, followed by western blotting for HRF probing. HDM-induced HRF secretion was enhanced not only by Th2 cytokines (IL-4, IL-5, and IL-13), but also by epithelial derived cytokines (IL-25, IL-33, and TSLP) and proinflammatory cytokines (IL-1beta, IL-6 and TNF). med, medium alone; US, unstimulated; HDM, house dust mite; CR, cockroach; RW, ragweed; Af, Aspergillus fumigatus. Arrowhead, HRF monomer.

[5] = test system: c-Kit+ mucosal mast cells of the small intestine; assay: Ex vivo mast cell activation test (MCAT); assay type: cell-based, mouse; conditions: 15 min at 37° C.
Experimental: FIGS. 2A-2C show mucosal mast cells can be activated ex vivo by antigen. Cells were released with EDTA from small intestines of non-sensitized/OVA challenged (Cont) or OVA-sensitized/OVA-challenged (OVA) mice, and mononuclear cells were selected. The cells were incubated for 15 min at 37° C. with OVA or anti-IgE antibody, and activation of Kit^+ mast cells was measured by flow cytometry (FIG. 2A, FIG. 2B). **, ***: p<0.01, p<0.001 by Student's t-test. (n=2; a representative of 2 independent experiments) (FIG. 2C) Mucosal cells derived from OVA-sensitized/OVA-challenged mice were stimulated with PBS (n=4), OVA (10 ng/ml, n=4) or HRF dimer (100 μg/ml, n=2) in the presence or absence of HRF-2CA (300 μg/ml).
FIGS. 11A-11C show HRF dimer, but not monomer can activate mast cells. (FIG. 11A) Purified dimeric and monomeric HRF expressed in E. coli. Recombinant HRF-[…] was purified first by Histrap HP and then Sephacryl S-200 HR16/60. Two peaks were observed by Sephacryl size fractionation. The first (Fr1) and second (Fr3) peaks contained dimer and monomer, respectively, as shown by SDS-PAGE. Fr1 and Fr3 were used for mast cell stimulation. (FIG. 11B) Cells were released with 10 mM EDTA from small intestines of OVA-sensitized/OVA-challenged mice, and mononuclear cells were selected. The cells were incubated for 15 min at 37° C. with mHRF monomer or dimer (100 μg/ml), or PBS, and Kit^+ mast cell activation (LAMP-1^+) was measured by flow cytometry (n=3). (FIG. 11C) Control experiments indicate an excellent specificity of the assay for HRF multimers. HRF-2CA (2CA) was used as a monomer control (n=2 for each concentration). Note that total concentrations of the 1:9 mixture of dimer:monomer gave almost the same luminescence values as did ten-fold less concentrations of dimer.
Twenty-four hours after the last OVA challenge, mice were sacrificed and small intestines (0.5-15 cm from stomach) were collected. The intestinal tissues were opened longitudinally and washed with PBS. Then, the tissues were incubated with 10 mM EDTA-PBS for 30 min at 37° C. After incubation, the tissues were transferred to 30 ml PBS in 50 ml tubes and vigorously shaken. After washed, the cells were resuspended in 40% Percoll solution and slowly loaded on the top of 75% Percoll solution. The cells were then centrifuged (2000 rpm, 20 min) and lymphocytes were collected. The cells were once centrifuged and resuspended in Tyrode's buffer. Abs (Biotin-anti-CD4 mAb (clone RM4-5), Biotin-anti-CD8 mAb (clone 53-6.7), Biotin-anti-B220 mAb (clone RA3-6B2), Biotin-anti-CD326 mAb (clone G8.8), PE-anti-CD117 (clone 2B8), AlexaFluor647-anti-LAMP-1 mAb (clone 1D4B)) (Biolegend) were added and cells were then stimulated with OVA, anti-IgE (clone RME-1, BioLegend) and recombinant dimeric murine HRF for 15 min at 37° C. After activation, cells were washed and incubated with FITC-streptavidin (Catalog #405202, Biolegend) for 30 min at 4° C. LAMP-1 expression was detected using FACS Calibur. Data were analyzed using FlowJo software.

[6] = test system: mouse bone marrow-derived mast cells (BMMCs); assay: IL-13 production of IgE-sensitized BMMCs stimulated with TNP3-BSA and mHRF dimer; assay type: cell-based; conditions: IL-13 ELISA
Experimental: (§3) FIGS. 33A-33B show HRF dimers enhance IgE/antigen-induced activation of mast cells and basophils. […] IL-13 in culture supernatants was quantified by ELISA. […] Then, HDM allergen (Dermatophagoides farinae at 10 ng/ml) was added to the cells together with FITC-anti-CD63 and APC-anti-CCR3 for 15 min. Expression of CD63 (activation marker) and CCR3 (basophil marker) was analyzed by flow cytometry.

[7] = test system: basophils; assay: Basophil activation (CD63) in blood of an HDM-sensitized asthmatic; assay type: cell-based, human; conditions: 10 μg/ml, 30 min, then HDM allergen 10 ng/ml for 15 min
Experimental: as §3

[8] = test system: OVA-induced allergic diarrhea; assay: Classical tolerance model, oral OVA before sensitization; assay type: in vivo, mouse
Experimental: (§4) In a classical tolerance model, five daily oral administrations of 1 mg OVA from day −11 to day −7 were performed before i.p. OVA/alum-sensitization on days 0 and 7 and followed by ig. OVA (30 mg) gavages on days 14, 21, 28 and 35. In another OIT model, mice were i.d. sensitized with OVA (750 μg) on days 0, 13 and 27 and followed by 9 oral OVA (60 mg) challenges from day 44 to day 60 to induce diarrhea in all mice. Then mice were i.g. treated with hourly increasing amounts of OVA on day 100 (0.1, 0.2, 0.5 mg), on day 101 (1, 2, 5 mg) and on day 102 (10, 20, 60 mg).
Applicant then tested the possibility provoked by the above human data that the level of HRF-reactive IgE is kept low in a desensitized state, using two murine models. In a classic tolerance model (30), five daily oral administrations of 1 mg OVA from day −11 to day −7 (OIT) prevented the OVA-induced development of allergic diarrhea in OVA-sensitized mice (FIG. 7B). By contrast, without oral pretreatment, all OVA-sensitized mice developed allergic diarrhea.

[9] = test system: OVA-induced allergic diarrhea; assay: OIT desensitization model, hourly increasing amounts of OVA for 3 days; assay type: in vivo, mouse
Experimental: as §4
Finally, HRF-reactive IgE and HRF-reactive IgG were monitored in another desensitization model, which mimicked the human OIT more faithfully. OVA-sensitized mice were first rendered allergic by OVA challenges and then received hourly increasing amounts of OVA for 3 consecutive days (OIT) after a resting period (FIG. 7D). […] Levels of HRF-reactive IgG and OVA-specific IgG were not changed by OIT (FIG. 7E). In non-sensitized mice, HRF-reactive IgE and HRF-reactive IgG levels were not changed by OIT and OVA-specific IgE and IgG levels were extremely low irrespective of OIT treatment (data not shown).

[10] = cells from allergic (OVA-sensitized/OVA-challenged) mice

Molecule: IL-1β
- secretion of HRF monomer [1]: increased
- HRF secretion [2]: enhanced
- HRF secretion [3]: strongly induced
- HDM-induced HRF secretion [4]: enhanced

B1: HRF dimer: recombinant disulfide-linked dimer of mouse histamine releasing factor (protein, UniProt P63028 1-172, looked up)
Translationally-controlled …: MIIYRDLISHDELFSDIYKIREIADGLCLEVEGKMVSRTEGAIDDSLIGGNASAEGPEGEGTESTVVTGVDIVMNHHLQETSFTKEAYKKYIKDYMKSLKGKLEEQKPERVKPFMTGAAEQIKHILANFNNYQFFIGENMNPDGMVALLDYREDGVTPFMIFFKDGLEMEKC
modifications: disulfide-linked dimer
notes: recombinant disulfide-linked dimer of mouse histamine releasing factor
- activation (LAMP-1+) of mucosal mast cells by the substance [5, 10]: can activate
- activation (LAMP-1+) of mucosal mast cells by the substance ([5]; cells from allergic (OVA-sensitized/OVA-challenged) mice, listed as dimeric HRF): activated
- IgE/antigen-induced activation of mast cells [6]: enhance

B2: hHRF dimer: human HRF dimer (protein)
chain: B1 Translationally-controlled … with L13M, A42N, V67I, L99I, K107R, N130K, F159Y
- IgE/antigen-induced activation of basophils (CD63) [7]: enhance

B3: OVA: food allergen of the murine model, also given orally as OIT (protein, UniProt P01012 2-386, looked up)
Ovalbumin: GSIGAASMEFCFDVFKELKVHHANENIFYCPIAIMSALAMVYLGAKDSTRTQINKVVRFDKLPGFGDSIEAQCGTSVNVHSSLRDILNQITKPNDVYSFSLASRLYAEERYPILPEYLQCVKELYRGGLEPINFQTAADQARELINSWVESQTNGIIRNVLQPSSVDSQTAMVLVNAIVFKGLWEKAFKDEDTQAMPFRVTEQESKPVQMMYQIGLFRVASMASEKMKILELPFASGTMSMLVLLPDEVSGLEQLESIINFEKLTEWTSSNVMEERKIKVYLPRMKMEEKYNLTSVLMAMGITDVFSSSANLSGISSAESLKISQAVHAAHAEINEAGREVVGSAEAGVDAASVSEEFRADHPFLFCIKHIATNAVLFFGRCVSP
- activation (LAMP-1+) of mucosal mast cells by the substance [5, 10]: further activated
- activation (LAMP-1+) of mucosal mast cells by the substance ([5]; cells from non-sensitized mice): few mast cells were activated
- OVA-induced development of allergic diarrhea ([8]; five daily oral administrations of 1 mg from day -11 to day -7): prevented
- HRF-reactive IgE levels ([8]; tolerance-induced vs non-tolerant and non-sensitized mice): significantly reduced
- levels of HRF-reactive IgE ([9]; before vs after OIT): lowered
- levels of HRF-reactive IgG and OVA-specific IgG ([9]; before vs after OIT): not changed
- levels of OVA-specific IgE ([9]; before vs after OIT): did not change
- OVA-sensitized/OVA-challenged mice desensitized to the final gavage dose of 60 mg ([9]; hourly increasing amounts for 3 consecutive days): 80%

From US20220241369A1, “COMPOSITIONS AND METHODS OF MODULATING INFLAMMATION” (La Jolla Institute for Allergy and Immunology, priority 2018, published 2022)
